Measurements taken from US11306156.

target: tissue factor (TF) antigen (UniProt P13726); test: SPR, Fab captured on anti-penta-His, TF as analyte, 1:1 fit
Sequence (P13726 33-251 limits assumed): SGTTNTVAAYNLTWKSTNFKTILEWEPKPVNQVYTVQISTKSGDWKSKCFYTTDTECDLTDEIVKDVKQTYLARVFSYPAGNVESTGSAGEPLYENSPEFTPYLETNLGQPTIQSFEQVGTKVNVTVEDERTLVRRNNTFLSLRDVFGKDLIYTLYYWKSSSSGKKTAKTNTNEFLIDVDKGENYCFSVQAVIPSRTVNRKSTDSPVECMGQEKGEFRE

Row | Change in KD with respect to wild type (-(log(KD design) - log(KD wt))) | Kd | Substance
1 | -0.29 | 0.31 nM | D3H44 Fab heterodimer, H L124E_L143E_K145M / L Q124K_V133G_S176R_T178R
2 | -0.15 | 0.22 nM | D3H44 Fab heterodimer, H L124E_L143D_K145M / L Q124K_V133G_S176R_T178K
3 | -0.08 | 0.19 nM | D3H44 Fab heterodimer, H L124E_L143D_K145T / L Q124K_V133G_S176R_T178K
4 | -0.02 | 0.15 nM | D3H44 Fab heterodimer, H L124E_L143D_K145T / L Q124K_V133G_S176R_T178R
5 | -0.19 | 0.24 nM | D3H44 Fab heterodimer, H L124E_L143E_K145M / L Q124K_V133G_S176R_T178K
6 | -0.15 | 0.22 nM | D3H44 Fab heterodimer, H L124R_S186R / L V133G_S176D_T178E_T180E

target: tissue factor (TF) (human) (UniProt P13726); test: SPR (ProteOn), Fab captured on anti-penta His, TF analyte, 1:1 fit
Sequence (P13726 33-251 limits assumed): as above

Row | Substance | Kd | change in KD vs wild type, -(log(KD design)-log(KD wt))
7 | H1L1 Fab heterodimer of LCCA set 9205 (D3H44 Fab; H: L124E_L143D_K145M; L: V133G_S176R_T178K) | 0.28 nM | -0.25
8 | H1L1 Fab heterodimer of LCCA set 9704 (D3H44 Fab; H: L143E_K145T_S188L; L: Q124R) | 0.21 nM | -0.12
9 | H1L1 Fab heterodimer of LCCA set 9070 (D3H44 Fab; H: F174G; L: S131T_S176F_T178Y) | 0.16 nM | 0
10 | H1L1 Fab heterodimer of LCCA set 9100 (D3H44 Fab; H: L124A_Q179K; L: Q124E_V133W_T180E) | 0.12 nM | 0.1
11 | H1L1 Fab heterodimer of LCCA set 9259 (D3H44 Fab; H: L124E_L143E_K145M; L: Q124K_V133G_S176R_T178K) | 0.24 nM | -0.19
12 | H1L1 Fab heterodimer of LCCA set 9911 (D3H44 Fab; H: S188L; L: WT) | 0.09 nM | 0.27
13 | H1L1 Fab heterodimer of LCCA set 9041 (D3H44 Fab; H: A139C_C233S; L: F116C_C214S) | 0.14 nM | 
14 | H1L1 Fab heterodimer of LCCA set 9737 (D3H44 Fab; H: L143R; L: Q124E_V133E) | 0.2 nM | -0.09
15 | H1L1 Fab heterodimer of LCCA set 9566 (D3H44 Fab; H: L124W_L143F; L: V133A) | 0.25 nM | -0.21
16 | H1L1 Fab heterodimer of LCCA set 9044 (D3H44 Fab; H: P175C_C233S; L: S162C_C214S) | 0.18 nM | 
17 | H1L1 Fab heterodimer of LCCA set 9917 (D3H44 Fab; H: S188L_V190Y; L: V133S) | 0.1 nM | 0.2
18 | H1L1 Fab heterodimer of LCCA set 9447 (D3H44 Fab; H: L124R_Q179K; L: V133G_S176D_T180E) | 0.28 nM | -0.26
19 | H1L1 Fab heterodimer of LCCA set 9491 (D3H44 Fab; H: L124R_S186K; L: V133G_S176D_T180E) | 0.24 nM | -0.19
20 | H1L1 Fab heterodimer of LCCA set 9732 (D3H44 Fab; H: L143K; L: Q124E_V133D_S176L) | 0.28 nM | -0.25
21 | H1L1 Fab heterodimer of LCCA set 9351 (D3H44 Fab; H: L124R_D146N_Q179K; L: Q124E_V133G_S176D_T178E_T180E) | 0.2 nM | -0.1

The remaining lines, values ahead:

Row | Kd | change in KD vs wild type, -(log(KD design)-log(KD wt)) | Substance
22 | 0.15 nM | 0.01 | H1L1 Fab heterodimer of LCCA set 9914 (D3H44 Fab; H: S188L_V190F; L: WT)
23 | 0.25 nM | -0.21 | H1L1 Fab heterodimer of LCCA set 9175 (D3H44 Fab; H: L124E_L143D_K145M; L: Q124K_V133G_S176R)
24 | 0.11 nM | 0.14 | H1L1 Fab heterodimer of LCCA set 9906 (D3H44 Fab; H: S188G; L: S176L)
25 | 0.15 nM | 0.02 | H1L1 Fab heterodimer of LCCA set 9102 (D3H44 Fab; H: L124A_S186K; L: Q124E_V133W_T180E)
26 | 0.15 nM | 0.01 | H1L1 Fab heterodimer of LCCA set 9364 (D3H44 Fab; H: L124R_D146N_Q179K; L: V133G_S176D_T180E)
27 | 0.11 nM | 0.15 | H1L1 Fab heterodimer of LCCA set 9987 (D3H44 Fab; H: L143E_K145T; L: Q124R_T178R)
28 | 0.2 nM | -0.11 | H1L1 Fab heterodimer of LCCA set 9213 (D3H44 Fab; H: L124E_L143D_K145T; L: Q124K_V133G_S176R)
29 | 0.27 nM | -0.23 | H1L1 Fab heterodimer of LCCA set 9573 (D3H44 Fab; H: L143A_Q179K; L: Q124E_V133Y_T180E)
30 | 0.14 nM | 0.04 | H1L1 Fab heterodimer of LCCA set 9073 (D3H44 Fab; H: F174V; L: S131T_S176F_T178Y)
31 | 0.21 nM | -0.12 | H1L1 Fab heterodimer of LCCA set 9071 (D3H44 Fab; H: F174V; L: S131T_S176F_T178F)
32 | 0.13 nM | 0.07 | H1L1 Fab heterodimer of LCCA set 9068 (D3H44 Fab; H: F174G; L: S131T_S176F_T178F)
33 | 0.16 nM |  | H1L1 Fab heterodimer of LCCA set 9043 (D3H44 Fab; H: F122C_C233S; L: S121C_C214S)
34 | 0.13 nM | 0.07 | H1L1 Fab heterodimer of LCCA set 6037 (D3H44 Fab; H: L124A; L: V133W)
35 | 0.26 nM | -0.22 | H1L1 Fab heterodimer of LCCA set 9734 (D3H44 Fab; H: L143K_D146G; L: Q124E_V133D)
36 | 0.14 nM | 0.06 | H1L1 Fab heterodimer of LCCA set 9052 (D3H44 Fab; H: A139G_F174V_V190A; L: S131T_L135F_S176F_T178F)
37 | 0.28 nM | -0.25 | H1L1 Fab heterodimer of LCCA set 9743 (D3H44 Fab; H: L143R; L: Q124E_V133E_S176L)
38 | 0.24 nM | -0.19 | H1L1 Fab heterodimer of LCCA set 9725 (D3H44 Fab; H: L143E_K145T_S188L; L: Q124R_Q160K_T178R)

target: tissue factor (TF) antigen (UniProt P13726); test: SPR, Fab captured on anti-penta His surface, TF as analyte, 1:1 fit

Row | Substance | Change in KD with respect to wild type (-(log(KD design) - log(KD wt))) | Kd
39 | D3H44 Fab heterodimer, H1L1 of LCCA Set # 9074 (H1 H172R_Q179K; L1 Q124E_Q160E_T180E) | -0.01 | 0.16 nM
40 | D3H44 Fab heterodimer, H1L1 of LCCA Set # 9818 (H1 Q39E_L143E_K145T_H172R; L1 Q38R_Q124R_Q160K_T178R) | -0.07 | 0.18 nM
41 | D3H44 Fab heterodimer, H1L1 of LCCA Sets # 9076, 9077 and 9078 (H1 H172T_Q179K; L1 Q124E_N137K_Q160E_S174R_T180E) | 0.01 | 0.15 nM
42 | D3H44 Fab heterodimer, H1L1 of LCCA Set # 9820 (H1 Q39E_L143E_K145T_Q179E; L1 Q38R_Q124R_Q160K_T178R) | -0.1 | 0.2 nM

Now from value to substance:

Row | Change in KD with respect to wild type (-(log(KD design) - log(KD wt))) | Kd | Substance
43 | 0.17 | 0.11 nM | D3H44 Fab heterodimer, H1L1 of LCCA Set # 9822 (H1 Q39R_D146G_Q179K; L1 Q38E_Q124E_Q160E_T180E)
44 | -0.27 | 0.29 nM | D3H44 Fab heterodimer, H1L1 of LCCA Sets # 9752 and 10552 (H1 L45P_L143E_K145T_H172R; L1 P44F_Q124R_Q160K_T178R)
45 | -0.18 | 0.24 nM | D3H44 Fab heterodimer, H1L1 of LCCA Set # 9823 (H1 Q39R_H172R_Q179K; L1 Q38E_Q124E_Q160E_T180E)
46 | -0.05 | 0.18 nM | D3H44 Fab heterodimer, H1L1 of LCCA Set # 9817 (H1 Q39E_L143E_K145T; L1 Q38R_Q124R_Q160K_T178R)

target: tissue factor (TF) antigen (UniProt P13726); test: SPR (ProteOn), Fab captured on anti-penta-His, TF as analyte, 1:1 fit

Row | Substance | Change in KD with respect to wild type (-(log(KD design) - log(KD wt))) | Kd
47 | D3H44 Fab heterodimer, H S186K / L Q124E_T178E_T180E | 0.02 | 0.15 nM
48 | D3H44 Fab heterodimer, H S186K / L Q124E_S176L_T180E | 0.03 | 0.15 nM
49 | D3H44 Fab heterodimer, H S186K / L Q124E_S131T_T178Y_T180E | 0.09 | 0.13 nM

Now from value to substance:

Row | Change in KD with respect to wild type (-(log(KD design) - log(KD wt))) | Kd | Substance
50 | 0.49 | 0.05 nM | D3H44 Fab heterodimer, H S186R / L Q124E_T178E_T180E
51 | 0.01 | 0.15 nM | D3H44 Fab heterodimer, H S186K / L Q124E_T178E
